This is an account of results in paper PMC11580166, “VPS26 Moonlights as a β-Arrestin-like Adapter for a 7-Transmembrane RGS Protein in Arabidopsis thaliana” (Biochemistry, 2024).

First the molecules themselves.
T1: VPS26A/VPS26B heterodimer (Arabidopsis thaliana, UniProt Q9FJD0 1-302; Q9T091 1-303)
T1 chain 1: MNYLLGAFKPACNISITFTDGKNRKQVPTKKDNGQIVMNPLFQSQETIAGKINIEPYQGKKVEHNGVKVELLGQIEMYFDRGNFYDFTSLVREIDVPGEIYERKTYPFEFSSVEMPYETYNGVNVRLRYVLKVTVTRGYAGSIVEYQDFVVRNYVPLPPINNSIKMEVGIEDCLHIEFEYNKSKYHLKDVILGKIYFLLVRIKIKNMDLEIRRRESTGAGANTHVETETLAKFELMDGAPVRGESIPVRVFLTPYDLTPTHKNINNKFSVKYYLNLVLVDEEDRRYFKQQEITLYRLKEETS
T1 chain 2: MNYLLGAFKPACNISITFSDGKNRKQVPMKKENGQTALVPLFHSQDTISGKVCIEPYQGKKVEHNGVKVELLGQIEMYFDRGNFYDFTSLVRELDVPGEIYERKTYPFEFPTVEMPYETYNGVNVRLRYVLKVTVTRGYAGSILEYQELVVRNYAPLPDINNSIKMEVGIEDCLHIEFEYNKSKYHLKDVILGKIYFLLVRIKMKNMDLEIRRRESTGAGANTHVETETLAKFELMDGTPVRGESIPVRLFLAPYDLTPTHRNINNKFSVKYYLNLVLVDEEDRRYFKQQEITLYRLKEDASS

T2: Vacuolar Protein Sorting-Associated 26B (AtVPS26B) (Arabidopsis thaliana, UniProt Q9T091 1-303)
T2 chain: T1 chain 2

T3: Vacuolar Protein Sorting-Associated 26A (AtVPS26A) (Arabidopsis thaliana, UniProt Q9FJD0 1-302)
T3 chain: T1 chain 1

T4: Full-length AtRGS1 with a phosphorylated C-tail peptide ligated by sortase A (Arabidopsis thaliana, phosphoserine at 428, 431 and 435)
T4 chain: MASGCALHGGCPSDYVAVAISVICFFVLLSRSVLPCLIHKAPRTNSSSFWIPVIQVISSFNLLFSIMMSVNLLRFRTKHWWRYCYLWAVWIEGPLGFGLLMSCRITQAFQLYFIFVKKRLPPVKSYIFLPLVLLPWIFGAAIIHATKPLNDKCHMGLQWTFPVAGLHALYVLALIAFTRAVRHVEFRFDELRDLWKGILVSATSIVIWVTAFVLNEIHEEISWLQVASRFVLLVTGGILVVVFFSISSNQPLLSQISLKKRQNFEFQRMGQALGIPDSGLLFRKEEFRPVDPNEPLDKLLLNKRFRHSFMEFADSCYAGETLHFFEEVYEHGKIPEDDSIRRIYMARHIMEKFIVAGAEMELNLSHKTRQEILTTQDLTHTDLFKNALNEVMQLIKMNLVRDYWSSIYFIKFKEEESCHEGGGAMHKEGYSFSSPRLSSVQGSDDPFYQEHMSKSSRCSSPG

B1: AtRGS1 truncated C tail peptide (A421-E447), unphosphorylated (peptide)
peptide: GGGAMHKEGYSFSSPRLSSVQGSDDPFYQE
notes: N-terminal GGG added to the peptide; AtRGS1 C-terminal tail, Arabidopsis thaliana, UniProt Q8H1F2, residues A421-E447; also called ΔC tail; RGS1 delta C-tail; source: synthetic peptide (Tufts University Peptide Core Facility)
B2: AtRGS1 RGS domain plus C-terminal tail (residues 284-459) (domain or fragment)
chain: KEEFRPVDPNEPLDKLLLNKRFRHSFMEFADSCYAGETLHFFEEVYEHGKIPEDDSIRRIYMARHIMEKFIVAGAEMELNLSHKTRQEILTTQDLTHTDLFKNALNEVMQLIKMNLVRDYWSSIYFIKFKEEESCHEAMHKEGYSFSSPRLSSVQGSDDPFYQEHMSKSSRCSSPG
B3: AtRGS1 pSer C tail peptide (A421-G459, phosphorylated at S428, S431, S435) (peptide)
peptide: GGGAMHKEGY[pS]FS[pS]PRL[pS]SVQGSDDPFYQEHMSKSSRCSSPG
notes: N-terminal GGG added to the peptide; AtRGS1 C-terminal tail, Arabidopsis thaliana, UniProt Q8H1F2, residues A421-G459; Purity 87%; also called RGS1 pC-tail; ptail; source: synthetic peptide (UNC Peptide Core Facility)
B4: AtRGS1 C tail peptide (A421-G459), unphosphorylated (peptide)
peptide: GGGAMHKEGYSFSSPRLSSVQGSDDPFYQEHMSKSSRCSSPG
notes: N-terminal GGG added to the peptide; AtRGS1 C-terminal tail, Arabidopsis thaliana, UniProt Q8H1F2, residues A421-G459; Purity 99%; also called unphosphorylated C-tail; source: synthetic peptide (UNC Peptide Core Facility)
B5: VPS26B Y85A/E93A mutant (natural protein, Arabidopsis thaliana, UniProt Q9T091 1-303, looked up)
chain: T1 chain 2 with Y85A, E93A
notes: AtVPS26B, Arabidopsis thaliana, UniProt Q9T091, with Y85A and E93A
B6: VPS26A/VPS26B heterodimer (complex, Arabidopsis thaliana)
chain 1: T1 chain 1
chain 2: T1 chain 2
notes: AtVPS26A, Arabidopsis thaliana, UniProt Q9FJD0, as m1; AtVPS26B, Arabidopsis thaliana, UniProt Q9T091, as m2; In the number-and-brightness rows the id stands for the endogenous heterodimer of the plant; also called VPS26A/B; VPS26A/B dimer; source: E. coli BL21 (DE3), each subunit purified, mixed; copies: 1 + 1
B7: Vacuolar Protein Sorting-Associated 26A (AtVPS26A) (natural protein, Arabidopsis thaliana, UniProt Q9FJD0 1-302, looked up)
chain: T1 chain 1
notes: AtVPS26A, Arabidopsis thaliana, UniProt Q9FJD0, gene At5g53530; Fluorescently labelled (Monolith RED-NHS or RED-MALEIMIDE kit) when it was the labelled partner in MST; the His-SUMO tag may have been kept in mass photometry (surmise); also called AtVSP26A; source: E. coli BL21 (DE3), purified (nickel resin, ULP1 cleavage, second nickel, SEC)

For assay [1], the target named is AtGPA1 (Arabidopsis thaliana) (UniProt P18064). The following applies: cited from earlier work.
Chain of AtGPA1 (Arabidopsis thaliana) (P18064 2-383): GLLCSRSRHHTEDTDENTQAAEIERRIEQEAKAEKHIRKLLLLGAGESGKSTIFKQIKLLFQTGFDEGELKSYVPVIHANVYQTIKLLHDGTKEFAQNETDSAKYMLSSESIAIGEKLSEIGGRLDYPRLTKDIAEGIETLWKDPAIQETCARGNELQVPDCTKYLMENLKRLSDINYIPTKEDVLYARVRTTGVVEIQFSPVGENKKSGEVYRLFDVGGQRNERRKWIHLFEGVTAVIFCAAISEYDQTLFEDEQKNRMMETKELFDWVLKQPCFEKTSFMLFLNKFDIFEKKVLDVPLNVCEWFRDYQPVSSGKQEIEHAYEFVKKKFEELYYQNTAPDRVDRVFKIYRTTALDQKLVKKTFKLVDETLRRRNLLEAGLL
The target in assay [2] is B6. The experiment in a line: MST; 20 nM fluorescence-labelled protein (RED-NHS or RED-MALEIMIDE), ligand dilution series, 25 °C, PBS pH 7.4, 0.05% Tween-20; apparent Kd; averages of 2 to 4 experiments. Particulars: both partners purified.
The target of assay [3] is T1, VPS26A/VPS26B heterodimer. The experiment in a line: ITC.
Assay [4] deals with T2, Vacuolar Protein Sorting-Associated 26B …. In words: ITC. On the technique in general: ITC needs no label: the signal is the heat of the interaction.
Assay [5] addresses T3, Vacuolar Protein Sorting-Associated 26A …. In words: ITC.
The target of assay [6] is Vacuolar Protein Sorting-Associated 26A (AtVPS26A) (Arabidopsis thaliana) (UniProt Q9FJD0). The experiment in a line: MST; 20 nM fluorescence-labelled protein (RED-NHS or RED-…), ligand dilution series, 25 °C, PBS pH 7.4, 0.05% Tween-20; apparent Kd; averages of 2 to 4 experiments.
Assay [7] deals with Vacuolar Protein Sorting-Associated 26B (AtVPS26B) (Arabidopsis thaliana) (UniProt Q9T091). The description is as above.
Assay [8] has as its target T1, VPS26A/VPS26B heterodimer. The experiment in a line: ITC; phosphorylated S428, S431, S435.
For assay [9], the target named is T2, Vacuolar Protein Sorting-Associated 26B …. The experiment in a line: ITC; phosphorylated S428, S431, S435.
For assay [10], the target named is T3, Vacuolar Protein Sorting-Associated 26A …. In words: ITC; phosphorylated S428, S431, S435.
Assay [11] has as its target T5, Vacuolar Protein Sorting-Associated 26B (AtVPS26B) (Arabidopsis thaliana, UniProt Q9T091 1-303).
T5 construct: AtVPS26B, Arabidopsis thaliana, UniProt Q9T091, gene At4g27690; the His-SUMO tag may have been kept in mass photometry (surmise); also called VSP26B; source: E. coli BL21 (DE3), purified (nickel resin, ULP1 cleavage, second nickel, SEC)
The experiment in a line: MST; 20 nM fluorescence-labelled protein (RED-NHS or RED-MALEIMIDE), ligand dilution series, 25 °C, PBS pH 7.4, 0.05% Tween-20; apparent Kd; averages of 2 to 4 experiments. The following applies: both partners purified.

Assay [12] has as its target B7. The assay is described as above. The following applies: both partners purified.
Assay [13] has as its target T4, Full-length AtRGS1 with a …. In words: mass photometry; purified AtRGS1 in detergent micelle (mixture of about 50% tail-ligated and truncated protein) with VPS26A/B heterodimer added. Particulars: both partners purified.

Where a chain is given by its changes, count along the chain named. Names and notes keep the numbering of the source. Where no end group is shown, it is not given here. [ ]: non-standard residue; d: D form. pS = N[C@@H](COP(=O)(O)O)C(=O)O

Consider AtRGS1 (from UniProt Q8H1F2), for which, in assay [1], the Kd was 125 nM.

On to B1, for which, in [2], the binding result is “binds”. Also, the Kd in [3] came out at 123 nM.

Turning to B2, the Kd in [3] turned out to be 22 nM; in [4] it was 40 nM; in [5], 38 nM; in [6], 34 nM; in [7], 35 nM.

With B3, the Kd in assay [8] was found to be 12 nM; in assay [9], 17 nM; in assay [10] it was 71 nM. The “fold higher affinity than the unphosphorylated C-tail” value in assay [2] was roughly 5 fold.

Take B4: the Kd was found to be 253 nM in assay [11], 217 nM in assay [12], 63 nM in assay [3] and 317 nM in assay [5].

As to B5, the “fold lower heterodimerization than VPS26B wildtype” value in assay [12] was roughly 10 fold.

What is called stoichiometry N is the number of molecules, sites or subunits per partner or assembly. For B6, the “stoichiometry N” value in assay [13] came out at 1.

For the molecule B7, in assay [11], the Kd is roughly 18 nM.
